From IntAct's records for PubMed 21423148

B1: Calcium-binding protein 39 (Homo sapiens), Q9Y376 (parent)
chain: MPFPFGKSHKSPADIVKNLKESMAVLEKQDISDKKAEKATEEVSKNLVAMKEILYGTNEKEPQTEAVAQLAQELYNSGLLSTLVADLQLIDFEGKKDVAQIFNNILRRQIGTRTPTVEYICTQQNILFMLLKGYESPEIALNCGIMLRECIRHEPLAKIILWSEQFYDFFRYVEMSTFDIASDAFATFKDLLTRHKLLSAEFLEQHYDRFFSEYEKLLHSENYVTKRQSLKLLGELLLDRHNFTIMTKYISKPENLKLMMNLLRDKSRNIQFEAFHVFKVFVANPNKTQPILDILLKNQAKLIEFLSKFQNDRTEDEQFNDEKTYLVKQIRDLKRPAQQEA
partner: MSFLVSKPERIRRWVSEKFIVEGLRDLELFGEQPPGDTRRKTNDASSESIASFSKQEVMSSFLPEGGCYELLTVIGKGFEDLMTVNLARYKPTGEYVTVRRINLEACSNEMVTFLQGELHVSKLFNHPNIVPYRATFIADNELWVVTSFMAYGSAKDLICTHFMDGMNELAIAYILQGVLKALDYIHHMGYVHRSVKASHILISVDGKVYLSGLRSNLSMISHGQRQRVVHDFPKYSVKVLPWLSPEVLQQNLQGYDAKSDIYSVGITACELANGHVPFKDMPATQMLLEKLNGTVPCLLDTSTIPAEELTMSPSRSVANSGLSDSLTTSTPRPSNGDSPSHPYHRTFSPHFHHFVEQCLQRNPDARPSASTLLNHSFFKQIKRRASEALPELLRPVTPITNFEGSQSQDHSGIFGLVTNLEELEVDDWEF
B2: Calcium-binding protein 39 (Homo sapiens), Q9Y376 (parent)
chain: B1 chain

How the values were obtained:
[1] = variants of: B1; conditions: with straa_human STRADA
[2] = variants of: B2; conditions: with stk39_human STK39, Q9UEW8
[3] = variants of: B2; conditions: with oxsr1_human OXSR1, O95747
[4] = variants of: B2; conditions: with stk26_human STK26, Q9P289
[5] = variants of: B2; conditions: with stk26_human STK26, Q9P289; remark: listed apart in the source
[6] = variants of: B2; conditions: with stk39_human STK39, Q9UEW8; remark: listed apart in the source
[7] = variants of: B2; conditions: with oxsr1_human OXSR1, O95747; remark: listed apart in the source
[8] = variants of: B2; conditions: with stk25_human STK25, O00506
[9] = variants of: B2; conditions: with stk26_human STK26, Q9P289; remark: listed apart in the source
[10] = variants of: B2; conditions: with stk39_human STK39, Q9UEW8; remark: listed apart in the source
[11] = variants of: B2; conditions: with oxsr1_human OXSR1, O95747; remark: listed apart in the source

Sequence of oxsr1_human OXSR1, O95747 (O95747 whole entry, looked up): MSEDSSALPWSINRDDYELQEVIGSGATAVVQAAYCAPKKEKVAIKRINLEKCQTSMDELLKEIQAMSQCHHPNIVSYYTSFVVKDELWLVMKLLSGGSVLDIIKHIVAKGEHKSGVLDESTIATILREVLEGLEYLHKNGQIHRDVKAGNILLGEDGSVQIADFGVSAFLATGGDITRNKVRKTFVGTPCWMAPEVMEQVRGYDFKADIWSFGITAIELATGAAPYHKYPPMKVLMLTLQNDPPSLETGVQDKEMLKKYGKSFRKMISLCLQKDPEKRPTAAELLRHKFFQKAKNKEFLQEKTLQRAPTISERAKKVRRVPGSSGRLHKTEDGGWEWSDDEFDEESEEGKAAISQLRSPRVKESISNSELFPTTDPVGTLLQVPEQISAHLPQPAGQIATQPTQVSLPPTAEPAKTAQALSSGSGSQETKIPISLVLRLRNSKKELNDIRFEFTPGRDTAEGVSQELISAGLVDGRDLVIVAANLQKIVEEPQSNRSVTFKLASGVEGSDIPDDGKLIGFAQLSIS
Sequence of stk26_human STK26, Q9P289 (Q9P289 whole entry, looked up): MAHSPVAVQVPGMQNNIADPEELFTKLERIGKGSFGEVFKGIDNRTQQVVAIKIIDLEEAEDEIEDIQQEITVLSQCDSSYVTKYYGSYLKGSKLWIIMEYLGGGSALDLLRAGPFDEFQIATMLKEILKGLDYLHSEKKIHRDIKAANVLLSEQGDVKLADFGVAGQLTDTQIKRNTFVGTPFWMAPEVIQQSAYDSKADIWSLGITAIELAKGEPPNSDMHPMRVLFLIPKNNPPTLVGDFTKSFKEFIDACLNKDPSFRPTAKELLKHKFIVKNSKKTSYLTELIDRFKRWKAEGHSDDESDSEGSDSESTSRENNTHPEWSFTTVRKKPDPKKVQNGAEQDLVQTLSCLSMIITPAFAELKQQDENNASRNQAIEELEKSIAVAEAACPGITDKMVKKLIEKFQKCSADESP
Sequence of stk25_human STK25, O00506 (O00506 whole entry, looked up): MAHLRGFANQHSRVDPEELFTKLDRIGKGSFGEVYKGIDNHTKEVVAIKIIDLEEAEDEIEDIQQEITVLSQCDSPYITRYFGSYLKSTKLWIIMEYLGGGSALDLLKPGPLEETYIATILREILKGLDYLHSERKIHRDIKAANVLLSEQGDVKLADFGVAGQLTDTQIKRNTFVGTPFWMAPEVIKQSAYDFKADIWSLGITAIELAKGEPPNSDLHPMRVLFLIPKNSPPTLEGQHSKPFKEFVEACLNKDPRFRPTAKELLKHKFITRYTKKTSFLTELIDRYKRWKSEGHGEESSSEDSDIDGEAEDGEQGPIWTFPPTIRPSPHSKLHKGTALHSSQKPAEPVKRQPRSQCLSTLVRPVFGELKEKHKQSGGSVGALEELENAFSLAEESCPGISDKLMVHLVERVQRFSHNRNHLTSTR

Variant | effect of a mutation on the interaction [1] | effect of a mutation on the interaction [2] | effect of a mutation on the interaction [3] | effect of a mutation on the interaction [4] | effect of a mutation on the interaction [5] | effect of a mutation on the interaction [6] | effect of a mutation on the interaction [7] | effect of a mutation on the interaction [8] | effect of a mutation on the interaction [9] | effect of a mutation on the interaction [10] | effect of a mutation on the interaction [11]
MPFPFGKSHKSPADIVKNLKESMAVLEKQDISDKKAEKATEEVSKNLVAMKEILYGTNEKEPQTEAVAQLAQELYNSGLLSTLVADLQLIDFEGKKDVAQIFNNILRRQIGTRTPTVEYICTQQNILFMLLKGYESPEIALNCGIMLRECIRHEPLAKIILWSEQFYDFFRYVEMSTFDIASDAFATFKDLLTRHKLLSAEFLEQHYDRFFSEYEKLLHSENYVTKAQSLKLLGELLLDRHNFTIMTKYISKPENLKLMMNLLRDKSRNIQFEAFHVFKVFVANPNKTQPILDILLKNQAKLIEFLSKFQNDRTEDEQFNDEKTYLVKQIRDLKRPAQQEA [R227A] | disrupting interaction |  |  |  |  |  |  |  |  |  | 
MPFPFGKSHKSPADIVKNLKESMAVLEKQDISDKKAEKATEEVSKNLVAMKEILYGTNEKEPQTEAVAQLAQELYNSGLLSTLVADLQLIDFEGKKDVAQIFNNILRRQIGTRTPTVEYICTQQNILFMLLKGYESPEIALNCGIMLRECIRHEPLAKIILWSEQFYDFFRYVEMSTFDIASDAFATFKDLLTRHKLLSAEFLEQHYDRFFSEYEKLLHSENYVTKAQSLKLLGELLLDRHNFTIMTKYISKPENLKLMMNLLRDKSRNIQFEAFHVFKVFVANPNKTQPILDILLKNQAKLIEFLSKFQNDRTEDEQFNDEKTYLVKQIRDLKRPAQQEA [R227A] |  | disrupting interaction | disrupting interaction | disrupting interaction | decreasing interaction | decreasing interaction | decreasing interaction | disrupting interaction |  |  | 

Other lines, results leading:

effect of a mutation on the interaction [1] | effect of a mutation on the interaction [2] | effect of a mutation on the interaction [3] | effect of a mutation on the interaction [4] | effect of a mutation on the interaction [5] | effect of a mutation on the interaction [6] | effect of a mutation on the interaction [7] | effect of a mutation on the interaction [8] | effect of a mutation on the interaction [9] | effect of a mutation on the interaction [10] | effect of a mutation on the interaction [11] | Variant
disrupting interaction |  |  |  |  |  |  |  |  |  |  | MPFPFGKSHKSPADIVKNLKESMAVLEKQDISDKKAEKATEEVSKNLVAMKEILYGTNEKEPQTEAVAQLAQELYNSGLLSTLVADLQLIDFEGKKDVAQIFNNILRRQIGTRTPTVEYICTQQNILFMLLKGYESPEIALNCGIMLRECIRHEPLAKIILWSEQFYDFFRYVEMSTFDIASDAFATFKDLLTRHKLLSAEFLEQHYDRFFSEYEKLLHSENYVTKRQSLKLLGELLLDRHNFTIMTKYISKPENLKLMANLLRDKSRNIQFEAFHVFKVFVANPNKTQPILDILLKNQAKLIEFLSKFQNDRTEDEQFNDEKTYLVKQIRDLKRPAQQEA [M260A]
 | disrupting interaction | disrupting interaction | disrupting interaction |  |  |  | disrupting interaction | decreasing interaction | decreasing interaction | decreasing interaction | MPFPFGKSHKSPADIVKNLKESMAVLEKQDISDKKAEKATEEVSKNLVAMKEILYGTNEKEPQTEAVAQLAQELYNSGLLSTLVADLQLIDFEGKKDVAQIFNNILRRQIGTRTPTVEYICTQQNILFMLLKGYESPEIALNCGIMLRECIRHEPLAKIILWSEQFYDFFRYVEMSTFDIASDAFATFKDLLTRHKLLSAEFLEQHYDRFFSEYEKLLHSENYVTKRQSLKLLGELLLDRHNFTIMTKYISKPENLKLMANLLRDKSRNIQFEAFHVFKVFVANPNKTQPILDILLKNQAKLIEFLSKFQNDRTEDEQFNDEKTYLVKQIRDLKRPAQQEA [M260A]
